According to article PMC10039853, “Increasing the melting temperature of VHH with the in silico free energy score” (Scientific Reports, 2023):

Each binder was assayed against T1, hen egg lysozyme (Gallus gallus (hen egg white), UniProt P00698) (assay: SPR; Biacore T200; lysozyme immobilised on Sensor Chip CM5 by amine coupling to 200 RU; VHH injected 300 s, dissociation 600 s; running buffer PBST (PBS, 0.005% Tween 20); duplicate; 1:1 binding model). Conditions: both partners purified.
T1 construct: hen egg lysozyme (HEL), antigen of VHH D3-L11; also in the complex structure PDB 6JB8; also called HEL; antigen lysozyme; source: bought: Sigma-Aldrich, Cat No. L6876 (named for the ELISA)
T1 sequence (P00698 19-147): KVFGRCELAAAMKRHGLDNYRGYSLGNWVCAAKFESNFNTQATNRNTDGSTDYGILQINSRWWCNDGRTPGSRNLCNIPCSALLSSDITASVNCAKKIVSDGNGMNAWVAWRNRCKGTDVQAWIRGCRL

Row | Binder | fold decrease in affinity (KD) against wild type [fold]
1 | D3-L11 A79W (VHH, as the VHH chain of m2 (D3-L11, PDB 6JB8) with the stated substitution; Second-round mutant; same construct as m2; also called W mutant; source: ExpiCHO, transient transfection, purified from supernatant (His Mag Sepharose excel); not shown: His6 (after a SAG tripeptide linker), C-terminal, kept) VHH: DVQLVESGGGSVQAGGSLRLSCAASGSTDSIEYMTWFRQAPGKAREGVAALYTHTGNTYYTDSVKGRFTISQDKAKNMWYLRMDSVKSEDTAIYTCGATRKYVPVRFALDQSSYDYWGQGTQVTVSS | < 10
2 | D3-L11 A79F (VHH, as the VHH chain of m2 (D3-L11, PDB 6JB8) with the stated substitution; First-round mutant; same construct as m2; also called F mutant; source: ExpiCHO, transient transfection, purified from supernatant (His Mag Sepharose excel); not shown: His6 (after a SAG tripeptide linker), C-terminal, kept) VHH: DVQLVESGGGSVQAGGSLRLSCAASGSTDSIEYMTWFRQAPGKAREGVAALYTHTGNTYYTDSVKGRFTISQDKAKNMFYLRMDSVKSEDTAIYTCGATRKYVPVRFALDQSSYDYWGQGTQVTVSS | < 10
3 | D3-L11 A79I (VHH, as the VHH chain of m2 (D3-L11, PDB 6JB8) with the stated substitution; Second-round mutant; same construct as m2; also called I mutant; source: ExpiCHO, transient transfection, purified from supernatant (His Mag Sepharose excel); not shown: His6 (after a SAG tripeptide linker), C-terminal, kept) VHH: DVQLVESGGGSVQAGGSLRLSCAASGSTDSIEYMTWFRQAPGKAREGVAALYTHTGNTYYTDSVKGRFTISQDKAKNMIYLRMDSVKSEDTAIYTCGATRKYVPVRFALDQSSYDYWGQGTQVTVSS | 1.6
4 | D3-L11 A79R (VHH, as the VHH chain of m2 (D3-L11, PDB 6JB8) with the stated substitution; Second-round mutant; same construct as m2; also called R mutant; source: ExpiCHO, transient transfection, purified from supernatant (His Mag Sepharose excel); not shown: His6 (after a SAG tripeptide linker), C-terminal, kept) VHH: DVQLVESGGGSVQAGGSLRLSCAASGSTDSIEYMTWFRQAPGKAREGVAALYTHTGNTYYTDSVKGRFTISQDKAKNMRYLRMDSVKSEDTAIYTCGATRKYVPVRFALDQSSYDYWGQGTQVTVSS | < 10
5 | D3-L11 A79Y (VHH, as the VHH chain of m2 (D3-L11, PDB 6JB8) with the stated substitution; Second-round mutant; same construct as m2; also called Y mutant; source: ExpiCHO, transient transfection, purified from supernatant (His Mag Sepharose excel); not shown: His6 (after a SAG tripeptide linker), C-terminal, kept) VHH: DVQLVESGGGSVQAGGSLRLSCAASGSTDSIEYMTWFRQAPGKAREGVAALYTHTGNTYYTDSVKGRFTISQDKAKNMYYLRMDSVKSEDTAIYTCGATRKYVPVRFALDQSSYDYWGQGTQVTVSS | < 2

The next lines start with the values.

Row | fold decrease in affinity (KD) against wild type [fold] | Binder
6 | < 10 | D3-L11 A79Q (VHH, as the VHH chain of m2 (D3-L11, PDB 6JB8) with the stated substitution; Second-round mutant; same construct as m2; also called Q mutant; source: ExpiCHO, transient transfection, purified from supernatant (His Mag Sepharose excel); not shown: His6 (after a SAG tripeptide linker), C-terminal, kept) VHH: DVQLVESGGGSVQAGGSLRLSCAASGSTDSIEYMTWFRQAPGKAREGVAALYTHTGNTYYTDSVKGRFTISQDKAKNMQYLRMDSVKSEDTAIYTCGATRKYVPVRFALDQSSYDYWGQGTQVTVSS
7 | < 2 | D3-L11 A79C (VHH, as the VHH chain of m2 (D3-L11, PDB 6JB8) with the stated substitution; Second-round mutant; same construct as m2; also called C mutant; source: ExpiCHO, transient transfection, purified from supernatant (His Mag Sepharose excel); not shown: His6 (after a SAG tripeptide linker), C-terminal, kept) VHH: DVQLVESGGGSVQAGGSLRLSCAASGSTDSIEYMTWFRQAPGKAREGVAALYTHTGNTYYTDSVKGRFTISQDKAKNMCYLRMDSVKSEDTAIYTCGATRKYVPVRFALDQSSYDYWGQGTQVTVSS
8 | < 10 | D3-L11 A79T (VHH, as the VHH chain of m2 (D3-L11, PDB 6JB8) with the stated substitution; Second-round mutant; same construct as m2; also called T mutant; source: ExpiCHO, transient transfection, purified from supernatant (His Mag Sepharose excel); not shown: His6 (after a SAG tripeptide linker), C-terminal, kept) VHH: DVQLVESGGGSVQAGGSLRLSCAASGSTDSIEYMTWFRQAPGKAREGVAALYTHTGNTYYTDSVKGRFTISQDKAKNMTYLRMDSVKSEDTAIYTCGATRKYVPVRFALDQSSYDYWGQGTQVTVSS
9 | < 10 | D3-L11 A79H (VHH, as the VHH chain of m2 (D3-L11, PDB 6JB8) with the stated substitution; Second-round mutant; same construct as m2; also called H mutant; source: ExpiCHO, transient transfection, purified from supernatant (His Mag Sepharose excel); not shown: His6 (after a SAG tripeptide linker), C-terminal, kept) VHH: DVQLVESGGGSVQAGGSLRLSCAASGSTDSIEYMTWFRQAPGKAREGVAALYTHTGNTYYTDSVKGRFTISQDKAKNMHYLRMDSVKSEDTAIYTCGATRKYVPVRFALDQSSYDYWGQGTQVTVSS

These binders were tested against T1, hen egg lysozyme (assay: ELISA; lysozyme (1 ug/mL) coated on 384-well MaxiSorp plate overnight at 4 °C; serial concentrations of VHH in 5% BlockingOne in TBST, 1 h at room temperature; detected with Penta-His HRP conjugate). Conditions: both partners purified.

Row | binding result | Binder
10 | binds | D3-L11 A79P (VHH, as the VHH chain of m2 (D3-L11, PDB 6JB8) with the stated substitution; Second-round mutant; same construct as m2; Too little protein for SPR; also called P mutant; source: ExpiCHO, transient transfection, purified from supernatant (His Mag Sepharose excel); not shown: His6 (after a SAG tripeptide linker), C-terminal, kept) VHH: DVQLVESGGGSVQAGGSLRLSCAASGSTDSIEYMTWFRQAPGKAREGVAALYTHTGNTYYTDSVKGRFTISQDKAKNMPYLRMDSVKSEDTAIYTCGATRKYVPVRFALDQSSYDYWGQGTQVTVSS
11 | binds | D3-L11 A79K (VHH, as the VHH chain of m2 (D3-L11, PDB 6JB8) with the stated substitution; Second-round mutant; same construct as m2; Too little protein for SPR; also called K mutant; source: ExpiCHO, transient transfection, purified from supernatant (His Mag Sepharose excel); not shown: His6 (after a SAG tripeptide linker), C-terminal, kept) VHH: DVQLVESGGGSVQAGGSLRLSCAASGSTDSIEYMTWFRQAPGKAREGVAALYTHTGNTYYTDSVKGRFTISQDKAKNMKYLRMDSVKSEDTAIYTCGATRKYVPVRFALDQSSYDYWGQGTQVTVSS
12 | binds | D3-L11 A79E (VHH, as the VHH chain of m2 (D3-L11, PDB 6JB8) with the stated substitution; Second-round mutant; same construct as m2; Too little protein for SPR; also called E mutant; source: ExpiCHO, transient transfection, purified from supernatant (His Mag Sepharose excel); not shown: His6 (after a SAG tripeptide linker), C-terminal, kept) VHH: DVQLVESGGGSVQAGGSLRLSCAASGSTDSIEYMTWFRQAPGKAREGVAALYTHTGNTYYTDSVKGRFTISQDKAKNMEYLRMDSVKSEDTAIYTCGATRKYVPVRFALDQSSYDYWGQGTQVTVSS

Each binder was assayed against T2, hen egg lysozyme (Gallus gallus (hen egg white), UniProt P00698) (assay: SPR; Biacore T200; lysozyme immobilised on Sensor Chip CM5 by amine coupling (200 RU); VHH injected 300 s, dissociation 600 s in PBST (PBS, 0.005% Tween 20); 1:1 binding model; duplicate). Conditions: both partners purified.
T2 construct: hen egg lysozyme (HEL), the antigen of D3-L11; also in PDB 6JB8; The supplier is named for the ELISA only; also called HEL; antigen lysozyme; source: bought: Sigma-Aldrich, Cat No. L6876
T2 sequence (P00698 19-147): as the sequence (P00698 19-147) above

Row | Kd [pM] | Binder
13 | 4.92 ± 0.12 | D3-L11 A79I (VHH, as the VHH chain of Sm1 (D3-L11 wild type, PDB 6JB8) with A79I; SAG tripeptide linker before the C-terminal 6xHis tag; source: ExpiCHO, transient transfection, purified from supernatant (His Mag Sepharose excel); not shown: His6, C-terminal, kept) VHH: DVQLVESGGGSVQAGGSLRLSCAASGSTDSIEYMTWFRQAPGKAREGVAALYTHTGNTYYTDSVKGRFTISQDKAKNMIYLRMDSVKSEDTAIYTCGATRKYVPVRFALDQSSYDYWGQGTQVTVSS
14 | 11.7 | D3-L11 A79S (VHH, as the VHH chain of Sm1 (D3-L11 wild type, PDB 6JB8) with A79S; SAG tripeptide linker before the C-terminal 6xHis tag; source: ExpiCHO, transient transfection, purified from supernatant (His Mag Sepharose excel); not shown: His6, C-terminal, kept) VHH: DVQLVESGGGSVQAGGSLRLSCAASGSTDSIEYMTWFRQAPGKAREGVAALYTHTGNTYYTDSVKGRFTISQDKAKNMSYLRMDSVKSEDTAIYTCGATRKYVPVRFALDQSSYDYWGQGTQVTVSS
15 | 3.17 ± 0.19 | anti-lysozyme VHH D3-L11, wild type (VHH, anti-hen egg lysozyme VHH D3-L11, 127 amino acids; A SAG tripeptide linker stands between the VHH and the C-terminal 6xHis tag; also called WT; source: ExpiCHO, transient transfection, purified from supernatant (His Mag Sepharose excel); not shown: His6, C-terminal, kept) VHH: DVQLVESGGGSVQAGGSLRLSCAASGSTDSIEYMTWFRQAPGKAREGVAALYTHTGNTYYTDSVKGRFTISQDKAKNMAYLRMDSVKSEDTAIYTCGATRKYVPVRFALDQSSYDYWGQGTQVTVSS
